Values quoted from earlier work, collected in paper PMC11178655, “Dosimetry and pharmacokinetics of [^177Lu]Lu-satoreotide tetraxetan in patients with progressive neuroendocrine tumours” (European Journal of Nuclear Medicine and Molecular Imaging, 2024).
Where a SMILES comes first, the peptide text is derived from it. Bridges are numbered along the chain shown (N, C = ends). [ ]: non-standard residue; d: D form. The star is where a group is joined. DOTA = O=C(O)CN1CCN(CC(=O)O)CCN(CC(=O)*)CCN(CC(=O)O)CC1; dPhe(4-NHCONH2) = NC(=O)Nc1ccc(C[C@@H](N)C(=O)O)cc1; Dihydroorotyl(S) = O=C1C[C@@H](C(=O)*)NC(=O)N1; Phe(4-Cl) = N[C@@H](Cc1ccc(Cl)cc1)C(=O)O; Phe(4-NH2) = Nc1ccc(C[C@H](N)C(=O)O)cc1

Test system: patients with progressive, SSTR-positive NETs
Settings: cited from earlier work
Text: Here, we fully explore the biodistribution and dosimetry of [^177Lu]Lu-satoreotide tetraxetan in a dosage-finding, phase I/II study (NCT02592707; registered October 30, 2015) of 40 patients with progressive, SSTR-positive NETs treated with [^177Lu]Lu-satoreotide tetraxetan. A plain language summary of this publication can be found in the Supplementary Information. […] Acute haematological toxicity may be a dose-limiting factor for [^177Lu]Lu-satoreotide tetraxetan, and for ^177Lu-labelled somatostatin analogues in general. There is limited correlation between absorbed radiation doses to the bone marrow and development of haematologic toxicity. Therefore, it is important to carefully monitor hematological parameters during ...

## C[C@@H](O)[C@@H]1NC(=O)[C@H](CCCCN)NC(=O)[C@@H](Cc2ccc(NC(N)=O)cc2)NC(=O)[C@H](Cc2ccc(NC(=O)[C@@H]3CC(=O)NC(=O)N3)cc2)NC(=O)[C@H](NC(=O)[C@H](Cc2ccc(Cl)cc2)NC(=O)CN2CCN(CC(=O)O)CCN(CC(=O)O)CCN(CC(=O)O)CC2)CSSC[C@@H](C(=O)N[C@H](Cc2ccc(O)cc2)C(N)=O)NC1=O [[^177Lu]Lu-satoreotide tetraxetan, metal not drawn] ({DOTA}-[Phe(4-Cl)][dC][Phe(4-NH2)](Dihydroorotyl(S))[dPhe(4-NHCONH2)]KTC[dY]-NH2; disulfide 2-7 (inferred); C-terminus assumed)
40 patients
  Grade 3/4 kidney toxicity: no reported grade 3/4 kidney toxicity
  Grade 3/4 treatment-related lymphopenia: 7.5 % of patients
  Disease control rate at 12 months: 94.7%
